According to PMC6555819, “Comprehensive study of nuclear receptor DNA binding provides a revised framework for understanding receptor specificity”:

The binders below were run against PPARg:RXRa (Homo sapiens, UniProt P37231;P19793 full;full) (assay: no ligand; PBM; 180 nM : 90 nM RXRa; PBS pH 7.4, 2% milk, 0.02% Triton X-100, 1 mM DTT, BSA, 0.4 mg/ml salmon testes DNA). Details: tags: His kept;His cleaved; copies: 1;1; label: surface-attached array probe.
PPARg:RXRa, sequence (P37231 29-505, chain 1 of 2): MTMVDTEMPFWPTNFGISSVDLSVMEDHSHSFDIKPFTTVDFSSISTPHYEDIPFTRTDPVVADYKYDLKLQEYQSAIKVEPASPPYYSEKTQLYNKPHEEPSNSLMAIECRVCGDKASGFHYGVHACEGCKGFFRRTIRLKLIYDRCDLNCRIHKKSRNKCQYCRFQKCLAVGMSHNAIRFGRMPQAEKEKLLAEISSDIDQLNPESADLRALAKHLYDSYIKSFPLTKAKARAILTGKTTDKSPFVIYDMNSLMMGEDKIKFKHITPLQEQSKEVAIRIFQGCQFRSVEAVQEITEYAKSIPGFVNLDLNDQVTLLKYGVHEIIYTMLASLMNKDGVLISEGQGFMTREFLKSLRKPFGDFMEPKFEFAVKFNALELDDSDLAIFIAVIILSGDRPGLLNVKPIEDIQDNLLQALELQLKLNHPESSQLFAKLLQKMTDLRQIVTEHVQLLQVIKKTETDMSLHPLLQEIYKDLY
PPARg:RXRa, sequence (P19793 whole entry, chain 2 of 2): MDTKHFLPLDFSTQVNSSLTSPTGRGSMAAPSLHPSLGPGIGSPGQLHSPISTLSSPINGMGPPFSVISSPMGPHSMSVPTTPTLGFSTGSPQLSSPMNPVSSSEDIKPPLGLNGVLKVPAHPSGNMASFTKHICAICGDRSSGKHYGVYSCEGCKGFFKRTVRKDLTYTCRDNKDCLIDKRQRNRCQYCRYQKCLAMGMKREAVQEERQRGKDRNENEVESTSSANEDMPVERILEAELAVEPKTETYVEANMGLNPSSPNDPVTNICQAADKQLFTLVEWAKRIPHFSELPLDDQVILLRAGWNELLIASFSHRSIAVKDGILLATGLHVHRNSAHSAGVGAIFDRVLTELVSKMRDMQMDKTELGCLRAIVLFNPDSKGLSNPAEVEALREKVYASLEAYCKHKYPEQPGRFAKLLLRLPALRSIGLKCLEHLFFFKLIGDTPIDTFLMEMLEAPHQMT

Binder	binding signal
NRC3_random_hg19_453_o1 (dsDNA) DNA 1: GCATGATCATGGCTCACTGCAGCCTCGACCTCCAGAGCGATTGACAGCGTAGAATGAAGG DNA 2: CCTTCATTCTACGCTGTCAATCGCTCTGGAGGTCGAGGCTGCAGTGAGCCATGATCATGC	0.09 PBM z-score against 500 random probes
NRC3_wobSeed39_DR1_A19C_o1 (dsDNA) DNA 1: GCCGAACTAGGTCAAAGGCCAGTGAAAGGCGACGTAGCGATTGACAGCGTAGAATGAAGG DNA 2: CCTTCATTCTACGCTGTCAATCGCTACGTCGCCTTTCACTGGCCTTTGACCTAGTTCGGC	11.3 PBM z-score against 500 random probes
NRC3_random_hg19_118_o1 (dsDNA) DNA 1: GCTTGTCACTTGTCATTCCTGCCAAGAGAGCTCTATGCGATTGACAGCGTAGAATGAAGG DNA 2: CCTTCATTCTACGCTGTCAATCGCATAGAGCTCTCTTGGCAGGAATGACAAGTGACAAGC	-0.38 PBM z-score against 500 random probes
NRC3_wobSeed31_DR1_A13G_o1 (dsDNA) DNA 1: GCTCATATAGGTGAAAGGTGAAAGTCGGTGTGGTAAGCGATTGACAGCGTAGAATGAAGG DNA 2: CCTTCATTCTACGCTGTCAATCGCTTACCACACCGACTTTCACCTTTCACCTATATGAGC	11.6 PBM z-score against 500 random probes
NRC3_random_hg19_11_o1 (dsDNA) DNA 1: GCTGAGTCAGAACCACCCAGCTAAGCCACCATCAAAGCGATTGACAGCGTAGAATGAAGG DNA 2: CCTTCATTCTACGCTGTCAATCGCTTTGATGGTGGCTTAGCTGGGTGGTTCTGACTCAGC	-0.05 PBM z-score against 500 random probes
NRC3_random_hg19_235_o1 (dsDNA) DNA 1: GCGCTGGGAGGCAACTGCCATTGGCATGCCATGCCAGCGATTGACAGCGTAGAATGAAGG DNA 2: CCTTCATTCTACGCTGTCAATCGCTGGCATGGCATGCCAATGGCAGTTGCCTCCCAGCGC	-0.53 PBM z-score against 500 random probes
NRC3_random_hg19_131_o1 (dsDNA) DNA 1: GCTCCCTCAAGCTCTCTGAATCTCAGAGTCAGCATCGCGATTGACAGCGTAGAATGAAGG DNA 2: CCTTCATTCTACGCTGTCAATCGCGATGCTGACTCTGAGATTCAGAGAGCTTGAGGGAGC	-0.66 PBM z-score against 500 random probes
NRC3_random_hg19_481_o1 (dsDNA) DNA 1: GCCCTTCTTAGTATCTGGGACAACAGGTGTGTGCTAGCGATTGACAGCGTAGAATGAAGG DNA 2: CCTTCATTCTACGCTGTCAATCGCTAGCACACACCTGTTGTCCCAGATACTAAGAAGGGC	0.31 PBM z-score against 500 random probes
NRC3_wobSeed36_DR1_C4G_o1 (dsDNA) DNA 1: GCCGGACTGGGGCAAAGGTTACCATACTCAGTACGAGCGATTGACAGCGTAGAATGAAGG DNA 2: CCTTCATTCTACGCTGTCAATCGCTCGTACTGAGTATGGTAACCTTTGCCCCAGTCCGGC	12.2 PBM z-score against 500 random probes
NRC3_wobSeed36_DR1_G5C_o1 (dsDNA) DNA 1: GCCCCACTGGGGCAAAGGTTACCATACTCAGTACGAGCGATTGACAGCGTAGAATGAAGG DNA 2: CCTTCATTCTACGCTGTCAATCGCTCGTACTGAGTATGGTAACCTTTGCCCCAGTGGGGC	12.2 PBM z-score against 500 random probes
NRC3_wobSeed36_DR1_C23G_o1 (dsDNA) DNA 1: GCCCGACTGGGGCAAAGGTTACGATACTCAGTACGAGCGATTGACAGCGTAGAATGAAGG DNA 2: CCTTCATTCTACGCTGTCAATCGCTCGTACTGAGTATCGTAACCTTTGCCCCAGTCGGGC	12.2 PBM z-score against 500 random probes
NRC3_random_hg19_181_o1 (dsDNA) DNA 1: GCGCAGCATTTGTGTGCATGTATGCTGTGTGTATGCGCGATTGACAGCGTAGAATGAAGG DNA 2: CCTTCATTCTACGCTGTCAATCGCGCATACACACAGCATACATGCACACAAATGCTGCGC	-0.13 PBM z-score against 500 random probes
NRC3_random_hg19_85_o1 (dsDNA) DNA 1: GCTGGCTGGCACCTGTGTTCCAACAACTTGAGAGAGGCGATTGACAGCGTAGAATGAAGG DNA 2: CCTTCATTCTACGCTGTCAATCGCCTCTCTCAAGTTGTTGGAACACAGGTGCCAGCCAGC	-0.09 PBM z-score against 500 random probes
NRC3_random_hg19_333_o1 (dsDNA) DNA 1: GCATGCCTGTAATCCCAGCTACTTGGGAGGCTGAGAGCGATTGACAGCGTAGAATGAAGG DNA 2: CCTTCATTCTACGCTGTCAATCGCTCTCAGCCTCCCAAGTAGCTGGGATTACAGGCATGC	-0.21 PBM z-score against 500 random probes
NRC3_random_hg19_220_o1 (dsDNA) DNA 1: GCTTGGTTGCAAGCAATACAAAGCAACTCTTGCTAAGCGATTGACAGCGTAGAATGAAGG DNA 2: CCTTCATTCTACGCTGTCAATCGCTTAGCAAGAGTTGCTTTGTATTGCTTGCAACCAAGC	-0.18 PBM z-score against 500 random probes
NRC3_random_hg19_211_o1 (dsDNA) DNA 1: GCATCACTATTCCCAACTTCAGGAGTAACCAGTATTGCGATTGACAGCGTAGAATGAAGG DNA 2: CCTTCATTCTACGCTGTCAATCGCAATACTGGTTACTCCTGAAGTTGGGAATAGTGATGC	0.12 PBM z-score against 500 random probes
NRC3_wobSeed29_DR1_T5A_o1 (dsDNA) DNA 1: GCGCATACGGGTCAAAGGTTATAGCATGAATAGAATGCGATTGACAGCGTAGAATGAAGG DNA 2: CCTTCATTCTACGCTGTCAATCGCATTCTATTCATGCTATAACCTTTGACCCGTATGCGC	12.2 PBM z-score against 500 random probes
NRC3_wobSeed29_DR1_A23G_o1 (dsDNA) DNA 1: GCGCTTACGGGTCAAAGGTTATGGCATGAATAGAATGCGATTGACAGCGTAGAATGAAGG DNA 2: CCTTCATTCTACGCTGTCAATCGCATTCTATTCATGCCATAACCTTTGACCCGTAAGCGC	12 PBM z-score against 500 random probes
NRC3_wobSeed25_DR1_A23G_o1 (dsDNA) DNA 1: GCCAAACTAGGTCAAAGGTCAAGGTCGAGCCAACCAGCGATTGACAGCGTAGAATGAAGG DNA 2: CCTTCATTCTACGCTGTCAATCGCTGGTTGGCTCGACCTTGACCTTTGACCTAGTTTGGC	14.4 PBM z-score against 500 random probes
NRC3_wobSeed25_DR1_A22G_o1 (dsDNA) DNA 1: GCCAAACTAGGTCAAAGGTCAGAGTCGAGCCAACCAGCGATTGACAGCGTAGAATGAAGG DNA 2: CCTTCATTCTACGCTGTCAATCGCTGGTTGGCTCGACTCTGACCTTTGACCTAGTTTGGC	14.2 PBM z-score against 500 random probes
NRC3_random_hg19_305_o1 (dsDNA) DNA 1: GCGACTGCACTCCAGCCTGGGCAATAGAGTGAGACTGCGATTGACAGCGTAGAATGAAGG DNA 2: CCTTCATTCTACGCTGTCAATCGCAGTCTCACTCTATTGCCCAGGCTGGAGTGCAGTCGC	-0.27 PBM z-score against 500 random probes
NRC3_wobSeed33_DR1_A13C_o1 (dsDNA) DNA 1: GCATCTCTAGGTCAAAGTTCAGTGAATCCCGAGGATGCGATTGACAGCGTAGAATGAAGG DNA 2: CCTTCATTCTACGCTGTCAATCGCATCCTCGGGATTCACTGAACTTTGACCTAGAGATGC	11.7 PBM z-score against 500 random probes
NRC3_random_hg19_81_o1 (dsDNA) DNA 1: GCGACTTTGTTGCCTAGGCTGGAATCTATCATGGCTGCGATTGACAGCGTAGAATGAAGG DNA 2: CCTTCATTCTACGCTGTCAATCGCAGCCATGATAGATTCCAGCCTAGGCAACAAAGTCGC	-0.16 PBM z-score against 500 random probes
NRC3_random_hg19_88_o1 (dsDNA) DNA 1: GCAGATTGCTGGCCAACTGCTCCTGATCCATTACTAGCGATTGACAGCGTAGAATGAAGG DNA 2: CCTTCATTCTACGCTGTCAATCGCTAGTAATGGATCAGGAGCAGTTGGCCAGCAATCTGC	-0.23 PBM z-score against 500 random probes
